Test results: patent US20250154250A1, “CEACAM5 ADC-ANTI-PD1/PD-L1 COMBINATION THERAPY” (SANOFI, priority 2021, published 2025)

Target: T1, recombinant human CEACAM5 (Homo sapiens, UniProt P06731)
T1 sequence (P06731 35-676): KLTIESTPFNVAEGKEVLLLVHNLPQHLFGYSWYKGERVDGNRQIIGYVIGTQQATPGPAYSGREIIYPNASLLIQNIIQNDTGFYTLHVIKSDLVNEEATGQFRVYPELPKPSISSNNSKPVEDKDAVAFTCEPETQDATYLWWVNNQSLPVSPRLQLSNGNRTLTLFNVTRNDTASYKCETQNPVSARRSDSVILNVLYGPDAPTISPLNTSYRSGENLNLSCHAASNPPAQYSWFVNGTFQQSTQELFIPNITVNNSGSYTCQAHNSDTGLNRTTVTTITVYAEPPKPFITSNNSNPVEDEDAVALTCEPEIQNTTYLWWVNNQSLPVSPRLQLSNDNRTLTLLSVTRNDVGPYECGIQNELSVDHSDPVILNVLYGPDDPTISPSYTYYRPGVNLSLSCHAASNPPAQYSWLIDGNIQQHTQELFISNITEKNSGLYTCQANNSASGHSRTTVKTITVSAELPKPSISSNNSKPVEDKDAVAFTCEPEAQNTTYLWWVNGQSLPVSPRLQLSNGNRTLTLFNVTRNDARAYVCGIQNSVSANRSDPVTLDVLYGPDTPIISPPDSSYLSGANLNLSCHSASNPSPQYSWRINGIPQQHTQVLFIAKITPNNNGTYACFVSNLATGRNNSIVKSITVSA
Test: ELISA binding to recombinant human CEACAM5
Details: read-out: affinity (ELISA)
Excerpt: “Affinity” is defined, in theory, by the equilibrium association between the whole antibody and the antigen. It can be experimentally assessed by a variety of known methods, such as measuring association and dissociation rates with surface plasmon resonance or measuring the EC50 (or apparent KD) in an immunochemical assay (ELISA, FACS). In these assays, the EC50 is the concentration of the antibody which induces a response halfway between the baseline and maximum after some specified exposure time on a defined concentration of antigen by ELISA (enzyme-linked immuno-sorbent assay) or cell expressing the antigen by FACS (Fluorescence Activated Cell Sorting).
Affinity for human CEACAM5 or for Macaca fascicularis CEACAM5 may be determined as the EC50 value in an ELISA using soluble recombinant CEACAM5 as capture antigen.

EC50: ~0.02 nM
B1: naked antibody: humanized anti-CEACAM5 antibody (tusamitamab), CAS Registry No. 2349294-95-5; VH SEQ ID NO: 6, VL SEQ ID NO: 7 (antibody, V domains shown)
VH: EVQLQESGPGLVKPGGSLSLSCAASGFVFSSYDMSWVRQTPERGLEWVAYISSGGGITYAPSTVKGRFTVSRDNAKNTLYLQMNSLTSEDTAVYYCAAHYFGSSGPFAYVVGQGTLVTVSS
VL: DIQMTQSPASLSASVGDRVTITCRASENIFSYLAWYQQKPGKSPKLLVYNTRTLAEGVPSRFSGSGSGTDFSLTISSLQPEDFATYYCQHHYGTPFTFGSGTKLEI
